Assay results published in the supplement of paper PMC12338614.
± gives the uncertainty stated by the source.

B1: library; numbered along this chain (parent)
chain: MEVVDPQQLGMFTEGELMSVGMDTFIHRIDSTEVIYQPRRKRAKLIGKYLMGDLLGEGSYGKVKEVLDSETLCRRAVKILKKKKLRRIPNGEANVKKEIQLLRRLRHKNVIQLVDVLYNEEKQKMYMVMEYCVCGMQEMLDSVPEKRFPVCQAHGYFCQLIDGLEYLHSQGIVHKDIKPGNLLLTTGGTLKISDLGVAEALHPFAADDTCRTSQGSPAFQPPEIANGLDTFSGFKVDIWSAGVTLYNITTGLYPFEGDNIYKLFENIGKGSYAIPGDCGPPLSDLLKGMLEYEPAKRFSIRQIRQHSWFRKKHPPAEAPVPIPPSPDTKDRWRSMTVVPYLEDLHGADEDEDLFDIEDDIIYTQDFTVPGQVPEEEASHNGQRRGLPKAVCMNGTEAAQLSTKSRAEGRAPNPARKACSASSKIRRLSACKQQ

Variants of: B1
Test: STK11 functional score (HeLa growth suppression), rescaled enrichment; synonymous median = 1, nonsense median = 0 (normalised score)
Conditions: with HeLa; variant type: missense
Summary of the method: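 In HeLa, Bxb1 integrated POPCode codon-randomised libraries of codon-optimised STK11 at an AAVS1 landing pad; three regions were each transfected three times. Integrants, marked as BFP-negative and mCherry-positive, were FACS-sorted 4–5 days after electroporation and expanded for about two weeks before tiled gDNA amplicons were sequenced on NextSeq (~2 million reads per tile). Each functional score is a post/pre-selection log ratio corrected to wild type, rescaled to the synonymous and nonsense medians, and merged across codons and replicate transfections, with error estimated by bootstrapping.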

| Variant | STK11 functional score |
| --- | --- |
| MEVVDPQQLGMFTEGELMSVGMDTFIHRIDSTEVIYQPRRKRAKLIGKYLMGDLLGEGSYGKVKEVLDSETLCRRAVKILKKKKLRRIPNGEANVKKEIQLLRRLRHKNVIQLVDVLYNEEKQKMYMVMEYCVCGMQEMLDSVPEKRFPVCQAHGYFCQLIDGLEYLHSQGIVHKDIKPGNLLLTTGGTLKISDLGVAEALHPFAADDTCRTSQGSPAFQPPEIANGLDTFSGFKVDIWSAGVTLYNITTGLYPFEGDNIYKLFENIGKGSYAIPGDCGPPLSDLLKGMLEYEPAKRFSIRQIRQHSWFRKKHPPAEAPVPIPPSPDTKDRWRSMTVVPYLEDLHGADEDEDLFDIEDDIIYTQDFTVPGQVPEEEASHNGQRRKLPKAVCMNGTEAAQLSTKSRAEGRAPNPARKACSASSKIRRLSACKQQ [G385K] | 1.6 ± 0.27 |
| MEVVDPQQLGMFTEGELMSVGMDTFIHRIDSTEVIYQPRRKRAKLIGKYLMGDLLGEGSYGKVKEVLDSETLCRRAVKILKKKKLRRIPNGEANVKKEIQLLRRLRHKNVIQLVDVLYNEEKQKYYMVMEYCVCGMQEMLDSVPEKRFPVCQAHGYFCQLIDGLEYLHSQGIVHKDIKPGNLLLTTGGTLKISDLGVAEALHPFAADDTCRTSQGSPAFQPPEIANGLDTFSGFKVDIWSAGVTLYNITTGLYPFEGDNIYKLFENIGKGSYAIPGDCGPPLSDLLKGMLEYEPAKRFSIRQIRQHSWFRKKHPPAEAPVPIPPSPDTKDRWRSMTVVPYLEDLHGADEDEDLFDIEDDIIYTQDFTVPGQVPEEEASHNGQRRGLPKAVCMNGTEAAQLSTKSRAEGRAPNPARKACSASSKIRRLSACKQQ [M125Y] | 1.31 ± 0.52 |
| MEVVDPQQLGMFTEGELMSVGMDTFIHRIDSTEVIYQPRRKRAKLIGKYLMGDLLGEGSYGKVKEVLDSETLCRRAVKILKKKKLRRIPNGEANVKKEIQLLRRLRHKNVIQLVDVLYNEEKQKMYMVMEYCVCGMQEMLDSVPEKRFPVCQAHGYFCQLIDGLEYLHSQGIVHKDIKPGNLLLTTGGTLKISDLGVAEALHPFAADDTCRTSQGSPAFQPPEIANGLDTFSGFKVDIWSAGVTLYNITTGLYPFEGDNIYKLFENIGKGSYAIPGDCGPPLSDLLKGMLEYEPAKRFSIRQIRQHSWFRKKHPPAEAPVPIPPSPDTKDRWRSMTVVPYLEDLHGGDEDEDLFDIEDDIIYTQDFTVPGQVPEEEASHNGQRRGLPKAVCMNGTEAAQLSTKSRAEGRAPNPARKACSASSKIRRLSACKQQ [A347G] | 1.12 ± 0.28 |
| MEVVDPQQLGMFTEGELMSVGMDTFIHRIDSTEVIYQPRRKRAKLIGKYLMGDLLGEGSYGKVKEVLDSETLCRRAVKILKKKKLRRIPNGEANVKKEIQLLRRLRHKNVIRLVDVLYNEEKQKMYMVMEYCVCGMQEMLDSVPEKRFPVCQAHGYFCQLIDGLEYLHSQGIVHKDIKPGNLLLTTGGTLKISDLGVAEALHPFAADDTCRTSQGSPAFQPPEIANGLDTFSGFKVDIWSAGVTLYNITTGLYPFEGDNIYKLFENIGKGSYAIPGDCGPPLSDLLKGMLEYEPAKRFSIRQIRQHSWFRKKHPPAEAPVPIPPSPDTKDRWRSMTVVPYLEDLHGADEDEDLFDIEDDIIYTQDFTVPGQVPEEEASHNGQRRGLPKAVCMNGTEAAQLSTKSRAEGRAPNPARKACSASSKIRRLSACKQQ [Q112R] | 0.64 ± 0.078 |
| MEVVDPQQLGMFTEGELMSVGMDTFIHRIDSTEVIYQPRRKRAKLIGKYLMGDLLGEGSYGKVKEVLDSETLCRRAVKILKKKKLRRIPNGEANVKKEIQLLRRLRHKNVIQLVDVLYNEEKQKMYMVMEYCVCGMQEMLDSVPEKRFPVCQAHGYFCQLIDGLEYLHSQGIVHKDIKPGNLLLTTGGTLKISDLGVAEALHPFAADDTCRTSQGSPAFQPPEIANGLDTFSGFKVDIWSAGVTLYNITTGLYPFEGDNIYKLFENIGKGSYAIPGDCGPPLSDLLKGMLEYEPAKRFSIRQIRQHSWFRKKHPPAEAPVPIPPSPDTKDRWRSMTVVPYLEDLHGADEDEDLFDIEDDIIYTQDFTVPGQVPEEEASHNGQRRGLPKAVCMNGTEAAQLSTKSRAEGAAPNPARKACSASSKIRRLSACKQQ [R409A] | 1.49 ± 0.2 |
| MEVVDPQQLGMFTEGELMSVGMDTFIHRIDSTEVIYQPRRKRAKLIGKYLMGDLLGEGSYGKVKEVLDSETLCRRAVKILKKKKLRRIPNGEANVKKEIQLLRRLRHKNVIQLVDELYNEEKQKMYMVMEYCVCGMQEMLDSVPEKRFPVCQAHGYFCQLIDGLEYLHSQGIVHKDIKPGNLLLTTGGTLKISDLGVAEALHPFAADDTCRTSQGSPAFQPPEIANGLDTFSGFKVDIWSAGVTLYNITTGLYPFEGDNIYKLFENIGKGSYAIPGDCGPPLSDLLKGMLEYEPAKRFSIRQIRQHSWFRKKHPPAEAPVPIPPSPDTKDRWRSMTVVPYLEDLHGADEDEDLFDIEDDIIYTQDFTVPGQVPEEEASHNGQRRGLPKAVCMNGTEAAQLSTKSRAEGRAPNPARKACSASSKIRRLSACKQQ [V116E] | 1.52 ± 0.76 |
| MEVVDPQQLGMFTEGELMSVGMDTFIHRIDSTEVIYQPRRKRAKLIVKYLMGDLLGEGSYGKVKEVLDSETLCRRAVKILKKKKLRRIPNGEANVKKEIQLLRRLRHKNVIQLVDVLYNEEKQKMYMVMEYCVCGMQEMLDSVPEKRFPVCQAHGYFCQLIDGLEYLHSQGIVHKDIKPGNLLLTTGGTLKISDLGVAEALHPFAADDTCRTSQGSPAFQPPEIANGLDTFSGFKVDIWSAGVTLYNITTGLYPFEGDNIYKLFENIGKGSYAIPGDCGPPLSDLLKGMLEYEPAKRFSIRQIRQHSWFRKKHPPAEAPVPIPPSPDTKDRWRSMTVVPYLEDLHGADEDEDLFDIEDDIIYTQDFTVPGQVPEEEASHNGQRRGLPKAVCMNGTEAAQLSTKSRAEGRAPNPARKACSASSKIRRLSACKQQ [G47V] | 0.431 ± 0.69 |
